± gives the standard deviation of the averaged measurements.
The sequences below were run on Saccharomyces cerevisiae (assay: protein stability index of tFT-peptide fusion (C-terminal peptide) (PSI (0-1 scale)); higher = more stable (slower turnover)). Conditions: genetic background: wild type; temperature: 30 C.
Description: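 Multiplexed protein stability (MPS) profiling in S. cerevisiae. Random 12-aa peptides (tFT-X12 library) are fused to the C-terminus of a sfGFP-mCherry tandem fluorescent timer, after mCherry and a GGGS linker. Cells are FACS-sorted into 8 mCherry/sfGFP bins and deep-sequenced. The protein stability index (PSI) is the read-weighted bin average, scaled from 0 (unstable) to 1 (stable). Only peptides with >10 reads are reported; cells were grown at 30 °C in SC-His with glucose.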
Work on GQCRTELVGLWE yielded a protein stability index of 0.664 ± 0.13.
With GQEGQIPPGNVH the protein stability index was 0.709 ± 0.011.
GQIVFDNSGSRW was tested, and the protein stability index was 0.6955 ± 0.0028.
In the case of GQKKARGRGGGM, the protein stability index is reported as 0.737 ± 0.0077.
GQRKQKIKKKRK showed a protein stability index of 0.647 ± 0.16.
For GQRTKSHSRGGP, the protein stability index was 0.648 ± 0.025.
Sequence GQVACLVSREYT has a protein stability index of 0.69 ± 0.018.
GQVCSWRCVCYL showed a protein stability index of 0.6741 ± 0.0065.
In the case of GRAVPKTHPGNL, the protein stability index is reported as 0.7686 ± 0.0037.
GRCIQHPYKVNI gave a protein stability index of 0.679 ± 0.017.
Work on GRDFASNFRQLG yielded a protein stability index of 0.718 ± 0.026.
GRDKLNEDRDKV was tested, and the protein stability index was 0.647 ± 0.0095.
For GRDPARPRPLAP, the protein stability index was 0.677 ± 0.046.
In the case of GREEKQGAENRT, the protein stability index is reported as 0.65 ± 0.018.
GRFVTRAWARSW gave a protein stability index of 0.639 ± 0.018.
GRGEIQDRRCRG was tested, and the protein stability index was 0.668 ± 0.049.
GRGFGFDITISS gave a protein stability index of 0.712 ± 0.098.
With GRGGIGDGGPVW the protein stability index was 0.6395 ± 0.00092.
In the case of GRGGYGKESLYC, the protein stability index is reported as 0.627 ± 0.031.
GRGRFMPRDWYW showed a protein stability index of 0.708 ± 0.028.
GRGSGIAMGVWV gave a protein stability index of 0.801 ± 0.19.
GRGVQWRAVGWE showed a protein stability index of 0.748 ± 0.041.
Work on GRGVVGLWVSGT yielded a protein stability index of 0.699 ± 0.021.
GRGWGWALGWCG showed a protein stability index of 0.698 ± 0.0095.
For GRIMRVPNENLT, the protein stability index was 0.696 ± 0.22.
For GRKGVIAELIKI, the protein stability index was 0.659 ± 0.11.
GRKTRSPFLVLM showed a protein stability index of 0.5707 ± 0.002.
In the case of GRLRLDAAGCMW, the protein stability index is reported as 0.675 ± 0.048.
GRNCGHSCANRP was tested, and the protein stability index was 0.696 ± 0.027.
With GRPFCLGVKMFL the protein stability index was 0.673 ± 0.035.
In the case of GRPGPSSPFLLP, the protein stability index is reported as 0.702 ± 0.052.
Sequence GRQKIESSEAQT has a protein stability index of 0.666 ± 0.022.
In the case of GRRAGGTGAPSR, the protein stability index is reported as 0.642 ± 0.016.
For GRRDVTFGTAFF, the protein stability index was 0.753 ± 0.052.
Work on GRRGGRLSWAPG yielded a protein stability index of 0.659 ± 0.017.
GRRHNPRTSSAQ gave a protein stability index of 0.756 ± 0.075.
GRRLVHKVDWSL gave a protein stability index of 0.666 ± 0.043.
Work on GRRNVGLKNSGL yielded a protein stability index of 0.645 ± 0.028.
For GRRRGGAVVEGV, the protein stability index was 0.678 ± 0.01.
GRRVRAPADFKS was tested, and the protein stability index was 0.587 ± 0.02.
GRSMWFIEFGLG gave a protein stability index of 0.7578 ± 0.0057.
Work on GRSQGIWVSRGE yielded a protein stability index of 0.683 ± 0.028.
With GRTFPLATAPFL the protein stability index was 0.687 ± 0.085.
GRVFRGRNGRCM gave a protein stability index of 0.7443 ± 0.0067.
Sequence GRWEGLRGLGVG has a protein stability index of 0.647 ± 0.012.
GRWRVLREVGAS was tested, and the protein stability index was 0.664 ± 0.01.
For GRYLIGKNKRVI, the protein stability index was 0.687 ± 0.011.
In the case of GSAGSAVRNVVS, the protein stability index is reported as 0.647 ± 0.051.
GSANIDQEGVQY showed a protein stability index of 0.781 ± 0.091.
GSFPPPARARLS gave a protein stability index of 0.677 ± 0.025.
In the case of GSFPRLPPSKSF, the protein stability index is reported as 0.724 ± 0.14.
In the case of GSFYGAVYVVPV, the protein stability index is reported as 0.669 ± 0.03.
For GSGDRSGCGWRG, the protein stability index was 0.678 ± 0.025.
For GSGELYMGRLVE, the protein stability index was 0.676 ± 0.047.
Sequence GSGTTGSLSYGV has a protein stability index of 0.695 ± 0.02.
With GSIVVVGVVEGG the protein stability index was 0.729 ± 0.066.
GSIWGVGWGQGV showed a protein stability index of 0.682 ± 0.11.
Work on GSLFVNRNCTVS yielded a protein stability index of 0.697 ± 0.19.
GSLPQLRAACRA gave a protein stability index of 0.566 ± 0.023.
With GSMRRSSVTLSA the protein stability index was 0.709 ± 0.065.
Sequence GSMTGYVRVGEG has a protein stability index of 0.57 ± 0.0064.
GSNMTQAMTAGG gave a protein stability index of 0.656 ± 0.027.
In the case of GSNQRRKGEHKP, the protein stability index is reported as 0.623 ± 0.036.
With GSNQYLNNTYLI the protein stability index was 0.64768 ± 0.00039.
GSPSPLIALSRK showed a protein stability index of 0.689 ± 0.0073.
Sequence GSRGGVAYGRVG has a protein stability index of 0.741 ± 0.04.
Work on GSRGHLGRGGPG yielded a protein stability index of 0.727 ± 0.017.
Sequence GSRSGPARTTGR has a protein stability index of 0.668 ± 0.024.
Work on GSRTHSMEDTTG yielded a protein stability index of 0.646 ± 0.0098.
With GSSPPSARVRLF the protein stability index was 0.763 ± 0.03.
GSSPVWRVAGAG was tested, and the protein stability index was 0.721 ± 0.061.
GSSRRWPGGRTI gave a protein stability index of 0.671 ± 0.073.
GSSVRGSLGREI gave a protein stability index of 0.711 ± 0.028.
Sequence GSVGFRTGRHLV has a protein stability index of 0.615 ± 0.063.
Work on GSVLFPLPFRPF yielded a protein stability index of 0.64 ± 0.11.
For GSVNGDTVGTQQ, the protein stability index was 0.708 ± 0.013.
GSVSGCVGVMRG was tested, and the protein stability index was 0.641 ± 0.01.
GSWRSFHVWYNS showed a protein stability index of 0.571 ± 0.042.
GTAFDGGELSEG gave a protein stability index of 0.739 ± 0.045.
GTGSEGVALRSG gave a protein stability index of 0.6697 ± 0.001.
Work on GTGSVHYHRSGL yielded a protein stability index of 0.676 ± 0.016.
For GTGTNGPSSAKL, the protein stability index was 0.7399 ± 0.0056.
GTHGVGGNIDLT was tested, and the protein stability index was 0.648 ± 0.013.
GTLGYALPTPYE was tested, and the protein stability index was 0.6736 ± 0.0059.
With GTQSGGGGGKGG the protein stability index was 0.683 ± 0.044.
GTRGVFEVCMDG was tested, and the protein stability index was 0.704 ± 0.025.
GTYGLCVWGRYL gave a protein stability index of 0.633 ± 0.056.
Sequence GTYPGAGWRYEW has a protein stability index of 0.694 ± 0.037.
With GVAGWGTVVGAQ the protein stability index was 0.712 ± 0.07.
In the case of GVAISSGNHINH, the protein stability index is reported as 0.654 ± 0.12.
With GVAWGSGVGMMW the protein stability index was 0.718 ± 0.029.
GVCAVCRLGLVA gave a protein stability index of 0.5574 ± 0.00072.
GVCGGVGGWGVA showed a protein stability index of 0.698 ± 0.019.
GVCPPAGDAGGV gave a protein stability index of 0.711 ± 0.018.
In the case of GVEGDPESKGRV, the protein stability index is reported as 0.696 ± 0.068.
GVFEGLVYGGLC gave a protein stability index of 0.719 ± 0.012.
With GVFVVGLSCSLR the protein stability index was 0.5521 ± 0.0048.
GVGAERCFVGVV showed a protein stability index of 0.681 ± 0.077.

From the supplement of paper PMC10724198
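Note: PSI is a weighted mean of sequencing reads over stability bins, variants kept only with over 10 reads, mCherry proximal and sfGFP distal, peptide attached via GGGS linker.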
